Results on eight sequences are retold here after the supplement of paper PMC5998384.

For data set [1], the system named is HeLa Kyoto. The data set is described as follows: melting temperature (median over replicates), in situ; higher = more thermally stable.
Data set [2] deals with HeLa Kyoto. The data set is described as follows: solubility change mitosis vs G1/S (difference of NP-40 vs SDS log2 ratios) (log2 ratio difference); higher = more soluble in mitosis.
Data set [3] relates to HeLa Kyoto. The data set is described as follows: solubility in G1/S (NP-40 vs SDS abundance) (log2 ratio); higher = more soluble. The note with it: cell cycle stage: G1/S.
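For melting temperature (median over replicates), in situ in this document: HeLa Kyoto cells synchronized by double thymidine or nocodazole block, proteins quantified by TMT10plex mass spectrometry, three independent biological replicates.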
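For solubility change mitosis vs G1/S (difference of NP-40 vs SDS log2 ratios) in this document: synchronized HeLa Kyoto cells (double thymidine block for G1/S, nocodazole release for mitosis), protein amounts in NP-40 versus SDS lysates quantified by mass spectrometry, three biological replicates.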
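For solubility in G1/S (NP-40 vs SDS abundance) in this document: HeLa Kyoto cells arrested at G1/S by double thymidine block, proteins quantified by TMT10plex mass spectrometry in mild NP-40 versus SDS extracts, three biological replicates.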

“MGEIEGTYRVLQTAGMRLGAQTPVGVSTLEPGQTLLPRMQEKHLHLRVKLLDNTMEIFDIEPKCDGQVLLTQVWKRLNLVECDYFGMEFQNTQSYWIWLEPMKPIIRQIRRPKNVVLRLAVKFFPPDPGQLQEEYTRYLFALQLKRDLLEERLTCADTTAALLTSHLLQSEIGDYDETLDREHLKVNEYLPGQQHCLEKILEFHQKHVGQTPAESDFQVLEIARKLEMYGIRFHMASDREGTKIQLAVSHMGVLVFQGTTKINTFNWSKVRKLSFKRKRFLIKLHPEVHGPYQDTLEFLLGSRDECKNFWKICVEYHTFFRLLDQPKPKAKAVFFSRGSSFRYSGRTQKQLVDYFKDSGMKRIPYERRHSKTHTSVRALTADLPKQSISFPEGLRTPASPSSANAFYSLSPSTLVPSGLPEFKDSSSSLTDPQVSYVKSPAAERRSGAVAGGPDTPSAQPLGPPALQPGPGLSTKSPQPSPSSRKSPLSLSPAFQVPLGPAEQGSSPLLSPVLSDAGGAGMDCEEPRHKRVPADEAYFIVKEILATERTYLKDLEVITVWFRSAVVKEDAMPATLMTLLFSNIDPIYEFHRGFLREVEQRLALWEGPSKAHTKGSHQRIGDILLRNMRQLKEFTSYFQRHDEVLTELEKATKRCKKLEAVYKEFELQKVCYLPLNTFLLKPIQRLLHYRLLLRRLCGHYSPGHHDYADCHDALKAITEVTTTLQHILIRLENLQKLTELQRDLVGIENLIAPGREFIREGCLHKLTKKGLQQRMFFLFSDMLLYTSKGVAGTSHFRIRGLLPLQGMLVEESDNEWSVPHCFTIYAAQKTIVVAASTRLEKEKWMLDLNSAIQAAKSGGDTAPALPGRTVCTRPPRSPNEVSLEQESEDDARGVRSSLEGHGQHRANTTMHVCWYRNTSVSRADHSAAVENQLSGYLLRKFKNSHGWQKLWVVFTNFCLFFYKTHQDDYPLASLPLLGYSVSIPREADGIHKDYVFKLQFKSHVYFFRAESKYTFERWMEVIQGASSSAGRAPSIVQDGPQPSSGLEGMVRGKEE [FARP2]” gave a melting temperature in the data set on HeLa Kyoto [1] (cell cycle stage: mitosis) of 50 °C. For the same sequence, the “solubility change mitosis (log2)” value in the data set with HeLa Kyoto [2] was -0.0474. Besides, in the data set on HeLa Kyoto [3], the “solubility in G1/S (log2)” value was -0.166.
For “MGGLFWRSALRGLRCGPRAPGPSLLVRHGSGGPSWTRERTLVAVKPDGVQRRLVGDVIQRFERRGFTLVGMKMLQAPESVLAEHYQDLRRKPFYPALIRYMSSGPVVAMVWEGYNVVRASRAMIGHTDSAEAAPGTIRGDFSVHISRNVIHASDSVEGAQREIQLWFQSSELVSWADGGQHSSIHPA [NME4]”, the melting temperature in the data set with HeLa Kyoto [1] (cell cycle stage: G1/S) was 54.9 °C; in the data set on HeLa Kyoto [1] (cell cycle stage: mitosis) it was 54.5 °C. The “solubility change mitosis (log2)” value in the data set on HeLa Kyoto [2] was -0.189. The “solubility in G1/S (log2)” value with HeLa Kyoto [3] came to 0.0944.
The corresponding values for “MGKEKTHINIVVIGHVDSGKSTTTGHLIYKCGGIDKRTIEKFEKEAAEMGKGSFKYAWVLDKLKAERERGITIDISLWKFETSKYYVTIIDAPGHRDFIKNMITGTSQADCAVLIVAAGVGEFEAGISKNGQTREHALLAYTLGVKQLIVGVNKMDSTEPPYSQKRYEEIVKEVSTYIKKIGYNPDTVAFVPISGWNGDNMLEPSANMPWFKGWKVTRKDGNASGTTLLEALDCILPPTRPTDKPLRLPLQDVYKIGGIGTVPVGRVETGVLKPGMVVTFAPVNVTTEVKSVEMHHEALSEALPGDNVGFKVKNVSVKDVRRGNVAGDSKNDPPMEAAGFTAQVIILNHPGQISAGYAPVLDCHMAHIACKFAELKEKIDRRSGKKLEDGPKFLKSGDAAIVDMVPGKPMCVESFSDYPPLGRFAVRDMRQTVAVGVIKAVDKKAAGAGKVTKSAQKAQKAK [EEF1A1P5]” are 52.4 °C, 52.4 °C, -0.0239 and 0.301.
As for “MGLGPVFLLLAGIFPFAPPGAAAEPHSLRYNLTVLSWDGSVQSGFLTEVHLDGQPFLRCDRQKCRAKPQGQWAEDVLGNKTWDRETRDLTGNGKDLRMTLAHIKDQKEGLHSLQEIRVCEIHEDNSTRSSQHFYYDGELFLSQNLETKEWTMPQSSRAQTLAMNVRNFLKEDAMKTKTHYHAMHADCLQELRRYLKSGVVLRRTVPPMVNVTRSEASEGNITVTCRASGFYPWNITLSWRQDGVSLSHDTQQWGDVLPDGNGTYQTWVATRICQGEEQRFTCYMEHSGNHSTHPVPSGKVLVLQSHWQTFHVSAVAAAAIFVIIIFYVRCCKKKTSAAEGPELVSLQVLDQHPVGTSDHRDATQLGFQPLMSDLGSTGSTEGA [MICA]”, the melting temperature in the data set with HeLa Kyoto [1] (cell cycle stage: G1/S) is 55.9 °C; in the data set on HeLa Kyoto [1] (cell cycle stage: mitosis), 57.2 °C. Also, in the data set with HeLa Kyoto [2], the “solubility change mitosis (log2)” value is -0.108. Also, in the data set on HeLa Kyoto [3], the “solubility in G1/S (log2)” value was -0.128.
The corresponding values for “MGLHLRPYRVGLLPDGLLFLLLLLMLLADPALPAGRHPPVVLVPGDLGNQLEAKLDKPTVVHYLCSKKTESYFTIWLNLELLLPVIIDCWIDNIRLVYNKTSRATQFPDGVDVRVPGFGKTFSLEFLDPSKSSVGSYFHTMVESLVGWGYTRGEDVRGAPYDWRRAPNENGPYFLALREMIEEMYQLYGGPVVLVAHSMGNMYTLYFLQRQPQAWKDKYIRAFVSLGAPWGGVAKTLRVLASGDNNRIPVIGPLKIREQQRSAVSTSWLLPYNYTWSPEKVFVQTPTINYTLRDYRKFFQDIGFEDGWLMRQDTEGLVEATMPPGVQLHCLYGTGVPTPDSFYYESFPDRDPKICFGDGDGTVNLKSALQCQAWQSRQEHQVLLQELPGSEHIEMLANATTLAYLKRVLLGP [PLA2G15]” are 54.7 °C, 56.1 °C, 0.0116 and 0.446.
The sequence “MGRKVTVATCALNQWALDFEGNLQRILKSIEIAKNRGARYRLGPELEICGYGCWDHYYESDTLLHSFQVLAALVESPVTQDIICDVGMPVMHRNVRYNCRVIFLNRKILLIRPKMALANEGNYRELRWFTPWSRSRHTEEYFLPRMIQDLTKQETVPFGDAVLVTWDTCIGSEICEELWTPHSPHIDMGLDGVEIITNASGSHQVLRKANTRVDLVTMVTSKNGGIYLLANQKGCDGDRLYYDGCAMIAMNGSVFAQGSQFSLDDVEVLTATLDLEDVRSYRAEISSRNLAASRASPYPRVKVDFALSCHEDLLAPISEPIEWKYHSPEEEISLGPACWLWDFLRRSQQAGFLLPLSGGVDSAATACLIYSMCCQVCEAVRSGNEEVLADVRTIVNQISYTPQDPRDLCGRILTTCYMASKNSSQETCTRARELAQQIGSHHISLNIDPAVKAVMGIFSLVTGKSPLFAAHGGSSRENLALQNVQARIRMVLAYLFAQLSLWSRGVHGGLLVLGSANVDESLLGYLTKYDCSSADINPIGGISKTDLRAFVQFCIQRFQLPALQSILLAPATAELEPLADGQVSQTDEEDMGMTYAELSVYGKLRKVAKMGPYSMFCKLLGMWRHICTPRQVADKVKRFFSKYSMNRHKMTTLTPAYHAENYSPEDNRFDLRPFLYNTSWPWQFRCIENQVLQLERAEPQSLDGVD [NADSYN1]” came in with a melting temperature with HeLa Kyoto [1] (cell cycle stage: mitosis) of 56.3 °C. The “solubility change mitosis (log2)” value in the data set on HeLa Kyoto [2] is -0.234. Besides, in the data set with HeLa Kyoto [3], the “solubility in G1/S (log2)” value turned out to be 0.157.
Regarding “MKDPSRSSTSPSIINEDVIINGHSHEDDNPFAEYMWMENEEEFNRQIEEELWEEEFIERCFQEMLEEEEEHEWFIPARDLPQTMDQIQDQFNDLVISDGSSLEDLVVKSNLNPNAKEFVPGVKYGNI [PAIP2]”, the melting temperature in the data set on HeLa Kyoto [1] (cell cycle stage: G1/S) was determined as 50.5 °C. In addition, the “solubility change mitosis (log2)” value with HeLa Kyoto [2] is -0.113. In the data set with HeLa Kyoto [3], the “solubility in G1/S (log2)” value is 0.197.
Regarding “MKDRLEQLKAKQLTQDDDTDAVEIAIDNTAFMDEFFSEIEETRLNIDKISEHVEEAKKLYSIILSAPIPEPKTKDDLEQLTTEIKKRANNVRNKLKSMEKHIEEDEVRSSADLRIRKSQHSVLSRKFVEVMTKYNEAQVDFRERSKGRIQRQLEITGKKTTDEELEEMLESGNPAIFTSGIIDSQISKQALSEIEGRHKDIVRLESSIKELHDMFMDIAMLVENQGEMLDNIELNVMHTVDHVEKARDETKKAVKYQSQARKKLIIIIVLVVVLLGILALIIGLSVGLN [STX3]”, the melting temperature in the data set on HeLa Kyoto [1] (cell cycle stage: G1/S) came to 53.9 °C. Moreover, the “solubility change mitosis (log2)” value in the data set on HeLa Kyoto [2] came out at 0.0981. In addition, the “solubility in G1/S (log2)” value in the data set on HeLa Kyoto [3] worked out at 0.157.
